PMC3148490 (Cell metabolism, 2011)

Assays:
[1] = target: T1, t-SNAREs: heterodimeric complex of syntaxin-1 and SNAP-25, membrane-integrated in liposomes (UniProt P32851 1-288; P60881 1-206); test: co-sedimentation
[2] = target: T1, t-SNAREs: heterodimeric complex of …; test: co-sedimentation; remark: listed apart in the source

T1 sequence (P32851 whole entry, chain 1 of 2): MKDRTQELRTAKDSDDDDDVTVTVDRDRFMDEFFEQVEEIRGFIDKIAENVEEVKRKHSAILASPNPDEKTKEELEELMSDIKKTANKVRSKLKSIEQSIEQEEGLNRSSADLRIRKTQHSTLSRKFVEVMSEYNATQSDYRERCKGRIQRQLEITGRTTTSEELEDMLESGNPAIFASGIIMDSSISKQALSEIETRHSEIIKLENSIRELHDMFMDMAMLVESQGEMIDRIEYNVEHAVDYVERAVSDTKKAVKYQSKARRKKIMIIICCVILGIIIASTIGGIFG
T1 sequence (P60881 whole entry, chain 2 of 2): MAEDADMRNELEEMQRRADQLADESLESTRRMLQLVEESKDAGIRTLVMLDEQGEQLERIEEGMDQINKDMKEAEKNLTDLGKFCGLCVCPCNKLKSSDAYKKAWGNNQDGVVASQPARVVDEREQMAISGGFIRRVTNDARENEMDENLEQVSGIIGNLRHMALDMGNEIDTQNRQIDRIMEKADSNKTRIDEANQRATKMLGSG

Binder	Kd [1]	fold binding against syntaxin-1 or SNAP-25 alone [2]
MBP-DAMH (MBP fusion protein of the CAPS DAMH domain) (domain or fragment, UniProt Q62717 859-1073, looked up) ENVGRLITPAKKLEDTIRLAELVIEVLQQNEEHHAEAFAWWSDLMVEHAETFLSLFAVDMDAALEVQPPDTWDSFPLFQLLNDFLRTDYNLCNGKFHKHLQDLFAPLVVRYVDLMESSIAQSIHRGFERESWEPVNNGSGTSEDLFWKLDALQTFIRDLHWPEEEFGKHLEQRLKLMASDMIESCVKRTRIAFEVKLQKTSRSTDFRVPQSICTM	177 nM	–
GST-DAMH (GST fusion protein of CAPS(859-1073), the DAMH domain) (domain or fragment, UniProt Q62717 859-1073, looked up) ENVGRLITPAKKLEDTIRLAELVIEVLQQNEEHHAEAFAWWSDLMVEHAETFLSLFAVDMDAALEVQPPDTWDSFPLFQLLNDFLRTDYNLCNGKFHKHLQDLFAPLVVRYVDLMESSIAQSIHRGFERESWEPVNNGSGTSEDLFWKLDALQTFIRDLHWPEEEFGKHLEQRLKLMASDMIESCVKRTRIAFEVKLQKTSRSTDFRVPQSICTM	–	2 fold
